Measurements from the supplement of paper PMC9112550, “Optimization of the antimicrobial peptide Bac7 by deep mutational scanning” (BMC Biology, 2022).

test system: Escherichia coli TOP10; experiment: shrunken log2 fold change of peptide-encoding DNA abundance (4.5 h post-induction vs induction); higher = less antimicrobial activity (less host growth inhibition); conditions: time post-induction: 4.5 h; library: site-saturation at positions 5, 18, 19, 20
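Note: peptides expressed intracellularly from a pBAD plasmid library in pooled LB shake-flask culture, induced with 0.3% L-arabinose, DNA abundance read by NGS, three biological replicates, DESeq2 with apeglm shrinkage.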

Row | Sequence | shrunken log2 fold change
1 | RRIRLRPPRLPRPRPRPEPNPRP | 0.0389
2 | RRIRDRPPRLPRPRPRPQIMPRP | 0.0478
3 | RRIRHRPPRLPRPRPRPRRVPRP | 0.36
4 | RRIRVRPPRLPRPRPRPFTQPRP | 0.0152
5 | RRIRQRPPRLPRPRPRPMFKPRP | -0.572
6 | RRIRQRPPRLPRPRPRPNITPRP | -0.495
7 | RRIRGRPPRLPRPRPRPKSCPRP | 0.959
8 | RRIRHRPPRLPRPRPRPIHDPRP | -1.81
9 | RRIRKRPPRLPRPRPRPQDQPRP | 0.325
10 | RRIRWRPPRLPRPRPRPEKPPRP | 2.12
11 | RRIRCRPPRLPRPRPRPIVPPRP | -0.298
12 | RRIRCRPPRLPRPRPRPFYGPRP | -0.262
13 | RRIRHRPPRLPRPRPRPNMHPRP | 1.05
14 | RRIRMRPPRLPRPRPRPDDDPRP | -0.00152
15 | RRIRPRPPRLPRPRPRPNECPRP | -0.217
16 | RRIRGRPPRLPRPRPRPIHMPRP | -0.0548
17 | RRIRGRPPRLPRPRPRPFKFPRP | -0.11
18 | RRIRVRPPRLPRPRPRPVNIPRP | -0.584
19 | RRIRARPPRLPRPRPRPSNEPRP | 0.167
20 | RRIRHRPPRLPRPRPRPIPKPRP | -0.0389
21 | RRIRMRPPRLPRPRPRPDDYPRP | 0.766
22 | RRIRMRPPRLPRPRPRPADFPRP | 0.0087
23 | RRIRKRPPRLPRPRPRPDAKPRP | 0.165
24 | RRIRNRPPRLPRPRPRPEHDPRP | 0.0627
25 | RRIRDRPPRLPRPRPRPQRFPRP | 0.095

Row | Sequence | shrunken log2 fold change
26 | RRIRHRPPRLPRPRPRPITTPRP | -0.0193
27 | RRIRVRPPRLPRPRPRPIYGPRP | -0.0564
28 | RRIRYRPPRLPRPRPRPPTRPRP | 0.277
29 | RRIRCRPPRLPRPRPRPWPTPRP | 0.0985
30 | RRIRSRPPRLPRPRPRPCVCPRP | 0.0568
31 | RRIRDRPPRLPRPRPRPIPDPRP | -0.0185
32 | RRIRARPPRLPRPRPRPWDYPRP | 0.00145
33 | RRIRQRPPRLPRPRPRPDKHPRP | -0.205
34 | RRIRQRPPRLPRPRPRPIKFPRP | -0.282
35 | RRIRGRPPRLPRPRPRPEARPRP | 1.54
36 | RRIRMRPPRLPRPRPRPGYHPRP | 0.0695
37 | RRIRTRPPRLPRPRPRPDCTPRP | 0.0818
38 | RRIRKRPPRLPRPRPRPFDLPRP | 0.0686
39 | RRIRTRPPRLPRPRPRPHQWPRP | -0.196
40 | RRIRIRPPRLPRPRPRPEMGPRP | -0.105
41 | RRIRMRPPRLPRPRPRPDLFPRP | 0.803
42 | RRIRARPPRLPRPRPRPWFKPRP | -0.0366
43 | RRIRDRPPRLPRPRPRPYIRPRP | -0.12
44 | RRIRPRPPRLPRPRPRPKEDPRP | 0.176
45 | RRIRERPPRLPRPRPRPCTPPRP | -0.239
46 | RRIRARPPRLPRPRPRPATIPRP | 0.496
47 | RRIRRRPPRLPRPRPRPPAPPRP | 1.13
48 | RRIRMRPPRLPRPRPRPSPSPRP | 0.588
49 | RRIRVRPPRLPRPRPRPPLFPRP | 0.256
50 | RRIRCRPPRLPRPRPRPHTGPRP | -0.341

Row | Sequence | shrunken log2 fold change
51 | RRIRARPPRLPRPRPRPDVTPRP | 0.533
52 | RRIRPRPPRLPRPRPRPNSPPRP | -0.255
53 | RRIRTRPPRLPRPRPRPAGEPRP | 0.323
54 | RRIRFRPPRLPRPRPRPSDIPRP | -0.385
55 | RRIRYRPPRLPRPRPRPRKDPRP | -0.288
56 | RRIRSRPPRLPRPRPRPCYFPRP | -0.387
57 | RRIRNRPPRLPRPRPRPHCWPRP | 0.0498
58 | RRIRFRPPRLPRPRPRPQHMPRP | -0.615
59 | RRIRARPPRLPRPRPRPVSSPRP | 0.155
60 | RRIRCRPPRLPRPRPRPRRMPRP | 0.00514
61 | RRIRARPPRLPRPRPRPPHQPRP | 0.952
62 | RRIRQRPPRLPRPRPRPTYKPRP | -0.549
63 | RRIRSRPPRLPRPRPRPCWPPRP | 0.42
64 | RRIRGRPPRLPRPRPRPGMAPRP | 0.877
65 | RRIRVRPPRLPRPRPRPSFTPRP | -0.301
66 | RRIRIRPPRLPRPRPRPKHFPRP | -0.292
67 | RRIRLRPPRLPRPRPRPERQPRP | 0.0746
68 | RRIRNRPPRLPRPRPRPTYKPRP | -0.196
69 | RRIRERPPRLPRPRPRPAVFPRP | 0.154
70 | RRIRQRPPRLPRPRPRPYGVPRP | -0.0132
71 | RRIRWRPPRLPRPRPRPSQEPRP | 0.0253
72 | RRIRERPPRLPRPRPRPGWEPRP | 0.0307
73 | RRIRERPPRLPRPRPRPEWIPRP | 0.064
74 | RRIRARPPRLPRPRPRPNFVPRP | -0.122
75 | RRIRERPPRLPRPRPRPCYMPRP | -0.0163

Row | Sequence | shrunken log2 fold change
76 | RRIRERPPRLPRPRPRPMYGPRP | -0.739
77 | RRIRCRPPRLPRPRPRPQLHPRP | -0.213
78 | RRIRSRPPRLPRPRPRPMFKPRP | -0.407
79 | RRIRCRPPRLPRPRPRPVMWPRP | 0.131
80 | RRIRHRPPRLPRPRPRPCNKPRP | -0.395
81 | RRIRLRPPRLPRPRPRPNSEPRP | -0.0888
82 | RRIRQRPPRLPRPRPRPICVPRP | -0.307
83 | RRIRARPPRLPRPRPRPIFVPRP | 0.233
84 | RRIRQRPPRLPRPRPRPIHQPRP | -0.15
85 | RRIRHRPPRLPRPRPRPDWLPRP | 0.0441
86 | RRIRTRPPRLPRPRPRPLYMPRP | -0.859
87 | RRIRNRPPRLPRPRPRPWHAPRP | -0.0713
88 | RRIRHRPPRLPRPRPRPKRRPRP | 0.116
89 | RRIRRRPPRLPRPRPRPWERPRP | -0.0262
90 | RRIRTRPPRLPRPRPRPVMPPRP | 0.372
91 | RRIRGRPPRLPRPRPRPGQRPRP | 0.345
92 | RRIRFRPPRLPRPRPRPYPLPRP | -0.604
93 | RRIRSRPPRLPRPRPRPDYTPRP | -0.342
94 | RRIRNRPPRLPRPRPRPNRWPRP | 0.105
95 | RRIRGRPPRLPRPRPRPWYRPRP | -0.19
96 | RRIRFRPPRLPRPRPRPKEVPRP | 0.0322
97 | RRIRWRPPRLPRPRPRPASTPRP | 0.349
98 | RRIRCRPPRLPRPRPRPEPCPRP | -0.0257
99 | RRIRRRPPRLPRPRPRPNRIPRP | 0.0217
100 | RRIRKRPPRLPRPRPRPTSCPRP | 0.174

Row | Sequence | shrunken log2 fold change
101 | RRIRRRPPRLPRPRPRPIDMPRP | 0.0233
102 | RRIRHRPPRLPRPRPRPDNCPRP | -0.0245
103 | RRIRRRPPRLPRPRPRPMDTPRP | 0.229
104 | RRIRIRPPRLPRPRPRPPHAPRP | 0.162
105 | RRIRFRPPRLPRPRPRPNISPRP | -0.503
106 | RRIRARPPRLPRPRPRPTGWPRP | 0.756
107 | RRIRIRPPRLPRPRPRPVIVPRP | -0.214
108 | RRIRLRPPRLPRPRPRPEHMPRP | -0.336
109 | RRIRERPPRLPRPRPRPMREPRP | 0.992
110 | RRIRRRPPRLPRPRPRPMNSPRP | -0.101
111 | RRIRVRPPRLPRPRPRPFEKPRP | -0.00236
112 | RRIRPRPPRLPRPRPRPAFGPRP | 0.45
113 | RRIRYRPPRLPRPRPRPECIPRP | -0.00318
114 | RRIRTRPPRLPRPRPRPAHEPRP | 0.197
115 | RRIRVRPPRLPRPRPRPFYSPRP | -0.3
116 | RRIRYRPPRLPRPRPRPYSSPRP | -0.0396
117 | RRIRLRPPRLPRPRPRPTMDPRP | -0.0334
118 | RRIRCRPPRLPRPRPRPKLQPRP | 0.155
119 | RRIRPRPPRLPRPRPRPWIMPRP | -0.236
120 | RRIRGRPPRLPRPRPRPPCQPRP | 0.283
121 | RRIRDRPPRLPRPRPRPKCGPRP | 0.00846
122 | RRIRKRPPRLPRPRPRPSGGPRP | 0.255
123 | RRIRLRPPRLPRPRPRPLSYPRP | 0.128
124 | RRIRYRPPRLPRPRPRPACGPRP | -0.145
125 | RRIRDRPPRLPRPRPRPARQPRP | 0.212

Row | Sequence | shrunken log2 fold change
126 | RRIRGRPPRLPRPRPRPMFQPRP | 0.357
127 | RRIRRRPPRLPRPRPRPCAWPRP | 0.0864
128 | RRIRIRPPRLPRPRPRPHKYPRP | -1.08
129 | RRIRLRPPRLPRPRPRPRVMPRP | 0.0356
130 | RRIRNRPPRLPRPRPRPPFLPRP | -0.0418
131 | RRIRVRPPRLPRPRPRPMGAPRP | 0.813
132 | RRIRQRPPRLPRPRPRPHIQPRP | -0.444
133 | RRIRMRPPRLPRPRPRPDFQPRP | -0.0477
134 | RRIRLRPPRLPRPRPRPVWHPRP | -0.047
135 | RRIRPRPPRLPRPRPRPKITPRP | -0.105
136 | RRIRERPPRLPRPRPRPIFSPRP | 0.0654
137 | RRIRMRPPRLPRPRPRPEEPPRP | 0.0975
138 | RRIRGRPPRLPRPRPRPPVGPRP | 0.579
139 | RRIRNRPPRLPRPRPRPGMMPRP | -0.247
140 | RRIRVRPPRLPRPRPRPKKYPRP | -0.411
141 | RRIRFRPPRLPRPRPRPYYKPRP | -0.207
142 | RRIRARPPRLPRPRPRPYAYPRP | 0.104
143 | RRIRKRPPRLPRPRPRPNQNPRP | 1.18
144 | RRIRLRPPRLPRPRPRPALWPRP | 0.754
145 | RRIRLRPPRLPRPRPRPLNTPRP | -0.454
146 | RRIRYRPPRLPRPRPRPYAPPRP | -0.784
147 | RRIRCRPPRLPRPRPRPMVCPRP | -0.143
148 | RRIRTRPPRLPRPRPRPDNSPRP | -0.0647
149 | RRIRIRPPRLPRPRPRPSWVPRP | -0.168
150 | RRIRQRPPRLPRPRPRPSAFPRP | -0.247
